# In US20160137746A1, “METHODS FOR TREATING HIGH CARDIOVASCULAR RISK PATIENTS WITH HYPERCHOLESTEROLEMIA” (Sanofi Biotechnology, priority 2014, published 2016):
# System: high cardiovascular risk patients with hypercholesterolemia
# Test: ODYSSEY LONG TERM: long-term safety and tolerability
# [1] = alirocumab patients with two consecutive LDL-C <25 mg/dL (n = 562), pre-specified analysis
# [2] = all alirocumab patients (n = 1550), pre-specified analysis
# Description: Safety parameters (adverse events [including adjudicated cardiovascular events], laboratory data, vital signs, and ECG) were assessed throughout the study.
# Safety endpoints assessed in this trial were: cardiovascular events; allergic events; local tolerability at injection site; other adverse events (including hemolytic anemia); laboratory tests: urinalysis, hematology (red blood cell count, red blood cell distribution width (RDW), reticulocyte count, hemoglobin, hematocrit, platelets, white blood cell count with differential blood count), standard chemistry (sodium, potassium, chloride, bicarbonate, calcium, phosphorous, urea nitrogen, creatinine, uric acid, total protein, albumin, LDH, γ Glutamyl Transferase [γGT]), Vitamin E (alpha tocopherol) and other Fat Soluble Vitamins, cortisol (and reflexive ACTH levels, as needed, followed by ACTH stimulation test, as needed), Gonadal Hormone Assessments, Hepatitis C antibody, liver panel (ALT, AST, ALP, and total bilirubin), and CPK; vital signs including heart rate and blood pressure; and 12-lead ECG.
# The safety population included all randomized patients who received at least one dose or part of a dose of the double-blind IMP.
# Safety analyses were descriptive, performed on the safety population according to treatment actually received. The safety analysis focused on the TEAE period defined as the time from the first dose of double-blind injection up to 70 days after the last double-blind injection. TEAE which developed, worsened or became serious or PCSA occurring after the patient's first injection in the open-label extension study (LTS13643) were not considered in the TEAE period. TEAE period was truncated at the common study cut-off date.
substance,measurement,setting,value
"Alirocumab: human anti-PCSK9 antibody; HCVR SEQ ID NO:1, LCVR SEQ ID NO:6; CDRs SEQ ID NOs 2/3/4/7/8/10","TEAEs by System-Organ-Class: Investigations (lab parameters), % of patients",[1],3.7% (21)
same,"TEAEs by System-Organ-Class: Metabolism and nutrition disorders, % of patients",[1],8.0% (45)
same,"TEAEs by System-Organ-Class: Musculoskeletal and connective tissue disorders, % of patients",[1],22.6% (127)
same,"TEAEs by System-Organ-Class: Neoplasms, benign, malignant (incl cysts/polyps), % of patients",[1],3.0% (17)
same,"TEAEs by System-Organ-Class: Nervous system disorders, % of patients",[1],11.2% (63)
same,"TEAEs by System-Organ-Class: Psychiatric disorders, % of patients",[1],4.3% (24)
same,"TEAEs by System-Organ-Class: Renal and urinary disorders, % of patients",[1],3.6% (20)
same,"TEAEs by System-Organ-Class: Reproductive system and breast disorders, % of patients",[1],2.0% (11)
same,"TEAEs by System-Organ-Class: Respiratory, thoracic, and mediastinal disorders, % of patients",[1],7.7% (43)
same,"TEAEs by System-Organ-Class: Skin and subcutaneous tissue disorders, % of patients",[1],6.9% (39)
same,"TEAEs by System-Organ-Class: Vascular disorders, % of patients",[1],5.0% (28)
same,"TEAEs leading to discontinuation, % of patients",[1],3.6% (20)
same,"TEAEs, % of patients",[1],71.9% (404)
same,"Treatment-emergent SAEs, % of patients",[1],14.6% (82)
same,"AE of special interest: All adjudicated cardiovascular events, % of patients",[2],4.0% (62)
same,"AE of special interest: General allergic reaction events, % of patients",[2],9.0% (140)
same,"AE of special interest: Haemolytic anaemia, % (n) of patients",[2],0
same,"AE of special interest: Neurocognitive disorders, % of patients",[2],1.2% (18)
same,"AE of special interest: Neurological events, % of patients",[2],4.2% (65)
same,"AE of special interest: Ophthalmological events, % of patients",[2],2.5% (38)
same,"AE of special interest: Treament-emergent local injection site reactions, % of patients",[2],5.8% (90)
same,"Neurocognitive AE: Amnesia, % of patients",[2],0.3% (5)
same,"Neurocognitive AE: Any neurocognitive disorder, % of patients",[2],1.2% (18)
same,"Neurocognitive AE: Confusion postoperative, % of patients",[2],<0.1% (1)
same,"Neurocognitive AE: Confusional state, % of patients",[2],0.3% (4)
same,"Neurocognitive AE: Dementia, % of patients",[2],<0.1% (1)
same,"Neurocognitive AE: Disorientation, % of patients",[2],<0.1% (1)
same,"Neurocognitive AE: Disturbance in attention, % of patients",[2],<0.1% (1)
same,"Neurocognitive AE: Frontotemporal dementia, % of patients",[2],<0.1% (1)
same,"Neurocognitive AE: Memory impairment, % of patients",[2],0.3% (5)
same,"Neurocognitive AE: Transient global amnesia, % of patients",[2],<0.1% (1)
same,"TEAE ALT increase, % of patients",[2],1.1%
same,"TEAE AST increase, % of patients",[2],0.2%
same,"TEAE Angina pectoris, % of patients",[2],2.1% (32)
same,"TEAE Arthralgia, % of patients",[2],4.5% (70)
same,"TEAE Atrial fibrillation, % of patients",[2],1.4% (22)
same,"TEAE Back pain, % of patients",[2],4.7% (73)
same,"TEAE Bronchitis, % of patients",[2],5.2% (80)
same,"TEAE CPK increase, % of patients",[2],0.5%
same,"TEAE Cellulitis, % of patients",[2],1.4% (22)
same,"TEAE Confusion, % of patients",[2],2.3% (35)
same,"TEAE Constipation, % of patients",[2],1.9% (30)
same,"TEAE Cough, % of patients",[2],3.2% (49)
same,"TEAE Depression, % of patients",[2],1.8% (28)
same,"TEAE Diabetes in patients with history of diabetes (Company MedDRA Query ""diabetes""), number as printed",[2],48
same,"TEAE Diabetes in patients with no history of diabetes (Company MedDRA Query ""diabetes""), number as printed",[2],19
same,"TEAE Diarrhea, % of patients",[2],5.3% (82)
same,"TEAE Dizziness, % of patients",[2],2.5% (38)
same,"TEAE Fall, % of patients",[2],2.8% (43)
same,"TEAE Fatigue, % of patients",[2],3.0% (47)
same,"TEAE Gastoenteritis, % of patients",[2],2.4% (37)
same,"TEAE Headache, % of patients",[2],4.8% (74)
same,"TEAE Hypertension, % of patients",[2],3.5% (54)
same,"TEAE Influenza, % of patients",[2],5.4% (84)
same,"TEAE Injection site reaction, % of patients",[2],5.7% (89)
same,"TEAE Muscle spasms, % of patients",[2],3.7% (58)
same,"TEAE Musculoskeletal pain, % of patients",[2],2.3% (36)
same,"TEAE Myalgia, % of patients",[2],4.9% (76)
same,"TEAE Nasopharyngitis, % of patients",[2],12.6% (196)
same,"TEAE Nausea, % of patients",[2],2.4% (37)
same,"TEAE Non-cardiac chest pain, % of patients",[2],1.8% (28)
same,"TEAE Osteoarthritis, % of patients",[2],2.3% (35)
same,"TEAE Pain in extremity, % of patients",[2],3.0% (46)
same,"TEAE Rhinitis, % of patients",[2],1.4% (22)
same,"TEAE Sinusitis, % of patients",[2],2.6% (40)
same,"TEAE Type-2 diabetes mellitus, % of patients",[2],1.7% (27)
same,"TEAE leading to death, % of patients",[2],0.5% (7)
same,"TEAEs by System-Organ-Class: Blood and lymphatic system disorders, % of patients",[2],2.4% (37)
same,"TEAEs by System-Organ-Class: Cardiac disorders, % of patients",[2],9.1% (141)
same,"TEAEs by System-Organ-Class: Ear and labyrinth disorders, % of patients",[2],2.0% (31)
same,"TEAEs by System-Organ-Class: Eye disorders, % of patients",[2],6.5% (100)
same,"TEAEs by System-Organ-Class: Gastrointestinal disorders, % of patients",[2],18.6% (288)
same,"TEAEs by System-Organ-Class: General disorders and administration site conditions, % of patients",[2],15.4% (238)
same,"TEAEs by System-Organ-Class: Injury, poisoning, and procedural complications, % of patients",[2],13.4% (207)
same,"TEAEs by System-Organ-Class: Investigations (lab parameters), % of patients",[2],6.1% (95)
same,"TEAEs by System-Organ-Class: Metabolism and nutrition disorders, % of patients",[2],9.1% (141)
same,"TEAEs by System-Organ-Class: Musculoskeletal and connective tissue disorders, % of patients",[2],27.2% (422)
same,"TEAEs by System-Organ-Class: Neoplasms, benign, malignant (incl cysts/polyps), % of patients",[2],2.5% (38)
same,"TEAEs by System-Organ-Class: Nervous system disorders, % of patients",[2],17.0% (264)
same,"TEAEs by System-Organ-Class: Psychiatric disorders, % of patients",[2],5.9% (91)
same,"TEAEs by System-Organ-Class: Renal and urinary disorders, % of patients",[2],4.6% (72)
same,"TEAEs by System-Organ-Class: Reproductive system and breast disorders, % of patients",[2],2.5% (38)
same,"TEAEs by System-Organ-Class: Respiratory, thoracic, and mediastinal disorders, % of patients",[2],11.0% (171)
same,"TEAEs by System-Organ-Class: Skin and subcutaneous tissue disorders, % of patients",[2],9.1% (141)
same,"TEAEs by System-Organ-Class: Vascular disorders, % of patients",[2],7.9% (122)
same,"TEAEs leading to discontinuation, % of patients",[2],6.2% (96)
same,"TEAEs, % of patients",[2],78.6% (1218)
same,"Treatment-emergent SAEs, % of patients",[2],16.5% (255)
same,Injection-site reactions,final analysis,5.9%
same,Myalgia,final analysis,5.4%
same,Neurocognitive events,final analysis,1.2%
same,Ophthalmological events,final analysis,2.9%
same,Patients with two consecutive calculated LDL cholesterol levels of less than 25 mg/dL (575 patients),final analysis,38%
same,Treatment-emergent adverse events,final analysis,81%
same,Treatment-emergent adverse events leading to study-drug discontinuation,final analysis,7.2%
same,"Alanine aminotransferase > 3 × ULN, % of patients",pre-specified analysis,1.6%
same,"Alanine aminotransferase > 3 × ULN, n/N of patients",pre-specified analysis,25/1532
same,"Aspartate aminiotransferase >3 × ULN, % of patients",pre-specified analysis,1.2%
same,"Aspartate aminiotransferase >3 × ULN, n/N of patients",pre-specified analysis,19/1532
same,"Creatine kinase > 3 × ULN, % of patients",pre-specified analysis,3.3%
same,"Creatine kinase > 3 × ULN, n/N of patients",pre-specified analysis,50/1507
same,Deaths reported during the study,pre-specified analysis,11 (0.7%) n (%)
same,Diarrhea (TEAE preferred term),pre-specified analysis,5.3%
same,Headache (TEAE preferred term),pre-specified analysis,4.8%
same,Hemolytic anaemia,pre-specified analysis,No case
same,Influenza (TEAE preferred term),pre-specified analysis,5.4%
same,Injection site reaction (TEAE preferred term),pre-specified analysis,5.7%
same,Nasopharyngitis (TEAE preferred term),pre-specified analysis,12.6%
same,Neurocognitive disorders,pre-specified analysis,18 (1.2%) n (%)
same,"Patients with LDL-C <25 mg/dL in two or more consecutive periods, share of population treated with alirocumab (562 out of 1550)",pre-specified analysis,36.3%
same,Patients with impaired glucose control at baseline defined as diabetic in the TEAE period,pre-specified analysis,36 (6.3%) n (%)
same,Patients with two consecutive calculated LDL-C values <25 mg/dL (<0.65 mmo/L),pre-specified analysis,562 (37.4%) n (%)
same,SOC gastrointestinal disorders,pre-specified analysis,18.6%
same,SOC general disorders and administration site conditions,pre-specified analysis,15.4%
same,"SOC injury, poisoning and procedural complications",pre-specified analysis,13.4%
same,SOC musculoskeletal and connective tissue disorders,pre-specified analysis,27.2%
same,SOC nervous system disorders,pre-specified analysis,17.0%
same,"SOC respiratory, thoracic and mediastinal disorders",pre-specified analysis,11.0%
same,Safety in patients with two consecutive calculated LDL-C <25 mg/dL,pre-specified analysis,No particular safety concern
same,TEAE leading to death,pre-specified analysis,7 (0.5%) n (%)
same,Time to first injection site reaction,pre-specified analysis,57 days
same,Treatment-emergent local injection site reaction,pre-specified analysis,90 (5.8%) n (%)
